The supplement of paper PMC11811203

B1: THAP1; numbered along this chain (parent)
chain: MVQSCSAYGCKNRYDKDKPVSFHKFPLTRPSLCKEWEAAVRRKNFKPTKYSSICSEHFTPDCFKRECNNKLLKENAVPTIFLCTEPHDKKEDLLEPQEQLPPPPLPPPVSQVDAAIGLLMPPLQTPVNLSVFCDHNYTVEDTMHQRKRIHQLEQQVEKLRKKLKTAQQRCRRQERQLEKLKEVVHFQKEKDDVSERGYVILPNDYFEIVEVPA

Variants of: B1
Assay: THAP1 transcriptional activity (GFP+/GFP- enrichment relative to wild-type constructs) (ratio to WT); higher = more THAP1 activity (PSMB5 reporter activation)
Settings: with PSMB5 promoter-GFP reporter
Experimental: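 Deep mutational scan of human THAP1. Site-saturation single amino acid variant library (residues 2-213) was expressed by lentivirus at MOI ~0.3 in THAP1-knockout HEK-293T cells carrying an endogenous PSMB5 promoter-GFP knock-in reporter. Five days post-transduction, BFP+ cells were FACS-sorted into GFP dim and GFP bright populations and variants were counted by Illumina sequencing. Activity is the GFP-bright/GFP-dim read fold change, mean of 2 replicates, divided by the mean fold change of wild-type (synonymous) constructs in the same screen pool; WT = 1.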

Point of comparison: E210L, THAP1 transcriptional activity 0.744. Against it:
- G117M — lower, 0.138
- L152P — lower, 0.177
- L152Q — lower, 0.191
- L152M — lower, 0.249
- V109M — higher, 1.17
- Q154L — higher, 0.867
- P122T — lower, 0.614
- P122V — lower, 0.214
- K90E — higher, 2.91
- D204K — higher, 0.75
- D204S — higher, 1.82
- D204Q — higher, 0.749
- L118P — higher, 1.1
- P107Y — higher, 1.42
- A38T — higher, 0.773
- N69R — lower, 0.216
- N69V — lower, 0.399
- N69H — lower, 0.344
- N69K — lower, 0.133
- Q155Y — lower, 0.71
- P26I — lower, 0.178
- P26N — lower, 0.147
- P26C — lower, 0.106
- P26D — lower, 0.0858
- R169C — lower, 0.292
- R42G — lower, 0.0813
- R42T — lower, 0.103
- N44V — lower, 0.111
- N44G — higher, 1.06
- E66Y — higher, 0.777
- Q99P — higher, 1.81
- Q99W — lower, 0.514
- Q99R — higher, 1.3
- Q99D — lower, 0.731
- P101Q — higher, 1.61
- P101G — higher, 1.27
- P101L — higher, 1.19
- P101K — higher, 1.21
- K147G — lower, 0.51
- A213C — higher, 0.884
- A213M — higher, 0.984
- S4C — lower, 0.233
- S4K — lower, 0.127
- F25C — lower, 0.125
- F25R — lower, 0.106
- P212N — higher, 1.15
- P212K — higher, 0.974
- P212W — higher, 0.968
- F206V — higher, 1.41
- H23M — lower, 0.0825
- H23G — lower, 0.088
- H23P — lower, 0.161
- E157Y — lower, 0.488
- K34T — lower, 0.337
- K34N — lower, 0.391
- P106Y — higher, 1.49
- Y50K — lower, 0.0751
- Y50L — lower, 0.135
- Y50V — lower, 0.12
- Y50A — lower, 0.294
- Y50D — lower, 0.129
- L201T — higher, 0.898
- L201E — higher, 0.953
- K164E — lower, 0.343
- K158E — lower, 0.562
- K11V — lower, 0.529
- K11M — lower, 0.124
- K11H — lower, 0.343
- D15E — lower, 0.569
- K181S — lower, 0.298
- K181V — lower, 0.316
- K181H — lower, 0.478
- K73G — lower, 0.194
- L163S — lower, 0.142
- I200H — lower, 0.546
- I200D — lower, 0.703
- P108A — higher, 1.3
- P108F — lower, 0.519
- H87K — higher, 1.13
- H87Y — higher, 1.16
- R196A — higher, 0.861
- Y205S — higher, 1.17
- Q3R — lower, 0.187
- Q3P — lower, 0.186
- C133K — higher, 1.7
- C133L — higher, 1.89
- V209C — lower, 0.679
- V209T — higher, 0.765
- H135I — lower, 0.146
- H135G — lower, 0.152
- L32K — lower, 0.267
- L32I — higher, 0.906
- L100H — lower, 0.606
- L100A — higher, 1.25
- Y198Q — higher, 1.51
- Y198G — lower, 0.536
- K64I — lower, 0.159
- K64S — lower, 0.123
- P78A — lower, 0.526
- P78I — lower, 0.211
- P78Y — lower, 0.488
- N12G — lower, 0.0923
- Q111V — lower, 0.457
- K188A — higher, 1.14
- L159Q — lower, 0.261
- K46D — lower, 0.0595
- K46S — lower, 0.379
- K46A — lower, 0.436
- C33W — lower, 0.11
- C33V — lower, 0.301
- A39W — lower, 0.289
- A39M — higher, 0.752
- A39T — lower, 0.26
- E207L — higher, 1.2
- E207P — lower, 0.59
- E207I — lower, 0.667
- E207A — lower, 0.721
- L93W — higher, 1.12
- L93N — higher, 1.51
- L93C — higher, 1.36
- L93H — higher, 1.01
- L93T — higher, 1.14
- N136W — lower, 0.0779
- N136C — lower, 0.164
- R175D — lower, 0.345
- V131K — lower, 0.299
- V131R — lower, 0.367
- V131I — higher, 0.81
- Q124G — higher, 0.787
- Q124W — lower, 0.257
- Q173D — lower, 0.232
- Q173H — lower, 0.693
- Q173L — lower, 0.611
- V199R — lower, 0.478
- E91G — higher, 1.01
- E91D — higher, 1.04
- E91N — higher, 0.857
- R172Y — lower, 0.252
- R172V — lower, 0.288
- R172S — lower, 0.428
- D92K — higher, 1.22
- Y8T — higher, 0.785
- Y8C — lower, 0.192
- F186V — higher, 1.11
- F186E — higher, 1.64
- E178F — lower, 0.529
- E178A — higher, 0.976
- M120D — higher, 1.08
- M120N — higher, 1.38
- Q167M — lower, 0.699
- Q167F — lower, 0.28
- Q167E — lower, 0.37
- N68F — lower, 0.0942
- A76I — lower, 0.165
- E182G — lower, 0.726
- E182A — higher, 0.871
- T125V — lower, 0.325
- T125W — lower, 0.351
- T125R — lower, 0.432
- V112L — lower, 0.629
- C54L — lower, 0.0556
- C62D — higher, 1.01
- I116N — higher, 0.988
- I116P — higher, 0.93
- I116A — higher, 1
- I116C — higher, 0.903
- T28Y — lower, 0.137
- T28G — higher, 0.843
- S6T — lower, 0.309
- S6A — higher, 0.787
- S6G — lower, 0.123
- L27F — lower, 0.503
- L27Y — lower, 0.304
- N75T — lower, 0.612
- K190D — lower, 0.645
- K190W — lower, 0.724
- E189V — lower, 0.53
- E189W — higher, 1.16
- L94M — higher, 1.84
- K162Q — lower, 0.612
- R148N — lower, 0.303
- R148W — lower, 0.179
- E174Q — higher, 1.26
- E174D — lower, 0.712
- T48K — lower, 0.158
- Y14S — lower, 0.124
- Y14D — lower, 0.122
- Y14P — lower, 0.164
- Y14G — lower, 0.085
- Y14A — lower, 0.211
- T84G — higher, 0.785
- N128C — lower, 0.306
- L129H — higher, 1
- L129R — higher, 1.86
- L129I — higher, 1.12
- R65C — lower, 0.173
- R65I — lower, 0.626
- R65F — lower, 0.208
- R65A — lower, 0.63
- P104A — higher, 1.09
- P104Q — higher, 1.88
- E195C — higher, 0.903
- E195R — higher, 1.03
- E195L — lower, 0.714
- Q187N — lower, 0.727
- Q187C — higher, 0.911
- Q187V — lower, 0.652
- Q187Y — higher, 0.809
- D88V — higher, 0.781
- D88N — lower, 0.665
- E153Y — lower, 0.404
- E153M — lower, 0.461
- C5E — lower, 0.115
- C5V — lower, 0.174
- H150W — higher, 0.976
- H150Y — higher, 0.767
- H150R — higher, 1.19
- Q145M — higher, 0.767
- Q145T — higher, 1.05
- F132H — higher, 1.03
- F132L — higher, 1.12
- F132G — lower, 0.49
- F132D — lower, 0.363
- F132Q — lower, 0.462
- F132V — lower, 0.402
- D191I — higher, 0.874
- D191S — higher, 1.21
- D191K — higher, 1.22
- D191R — higher, 1.31
- D191T — higher, 1.12
- D191E — higher, 1.36
- P30K — lower, 0.428
- P30Y — lower, 0.21
- Q168N — higher, 0.781
- T79A — lower, 0.438
- T79I — higher, 0.861
- K24T — lower, 0.109
- D141A — lower, 0.37
- D141S — lower, 0.634
- D141Y — lower, 0.644
- D141H — lower, 0.514
- I149H — lower, 0.248
- I149R — lower, 0.245
- I149K — lower, 0.403
- A7V — lower, 0.612
- A7H — lower, 0.179
- L177I — higher, 0.925
- F63A — lower, 0.117
- C83I — higher, 1.18
- C83T — higher, 1.67
- D192F — lower, 0.716
- D192L — higher, 1.22
- D192Q — higher, 1.23
- L82R — higher, 0.825
- P19Q — lower, 0.335
- P19I — lower, 0.186
- E37K — lower, 0.292
- V156R — lower, 0.349
- V156D — lower, 0.153
- D134H — lower, 0.203
- P126C — lower, 0.294
- P126I — lower, 0.18
- Q151E — lower, 0.7
- V127K — higher, 1.64
- V127E — higher, 0.897
- V127C — lower, 0.636
- I208R — higher, 0.751
- I208M — higher, 1.25
- R29N — lower, 0.536
- Y137I — lower, 0.109
- Y137L — lower, 0.167
- Y137A — lower, 0.0848
- V40Y — lower, 0.101
- V40T — lower, 0.238
- V40F — lower, 0.119
- L72A — lower, 0.17
- L72F — lower, 0.177
- H144G — higher, 1.11
- H144W — lower, 0.56
- H144F — lower, 0.637
- E35T — lower, 0.473
- E35L — higher, 1.18
- E35Y — lower, 0.266
- I80S — lower, 0.272
- I80E — lower, 0.459
- E74P — higher, 0.952
- E74A — lower, 0.445
- E95A — higher, 1.46
- E95C — higher, 1.23
- E95N — higher, 1.31
- E95D — higher, 1.16
- E95Q — higher, 1.81
- A114G — higher, 0.748
- A114D — higher, 1.33
- K161Y — lower, 0.195
- K161L — lower, 0.441
- S55A — lower, 0.112
- C67P — lower, 0.13
- C67L — lower, 0.481
- C67N — lower, 0.17
- C67D — lower, 0.135
- K70E — lower, 0.134
- K70F — lower, 0.163
- S110R — higher, 0.973
- K89Q — higher, 1.32
- L123V — higher, 1.01
- I53N — lower, 0.0864
- I53W — lower, 0.052
- V77F — lower, 0.325
- V20W — lower, 0.141
- V20I — higher, 1.71
- V20Q — lower, 0.139
- G9V — lower, 0.0945
- G9F — lower, 0.148
- E85Q — higher, 1.16
- E85P — higher, 1.01
- M143S — higher, 0.971
- M143R — higher, 0.991
- R171K — lower, 0.627
- R171C — lower, 0.256
- T138P — lower, 0.286
- T138L — lower, 0.13
- T138F — lower, 0.626
- T138N — lower, 0.196
- L119E — higher, 1.03
- F22W — lower, 0.125
- F22S — lower, 0.0454
- F22D — lower, 0.0567
- P103Y — higher, 0.902
- E98W — lower, 0.567
- V183P — lower, 0.678
- V183M — higher, 0.882
- S130C — lower, 0.265
